Reference: the supplement of paper PMC9170038

Test system: K4 kissing-loop RNA reporter
Assay: apparent KD of K4 kissing-loop reporter; higher = weaker reporter binding
Conditions: Eterna round: R107
Experimental: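 RNA-MaP round R107: designed RNA switches with theophylline, tryptophan, arginine or FMN aptamers are transcribed on-chip within common flanks. They are titrated with a labelled K4 kissing-loop RNA reporter in RNA-MaP buffer (100 mM Tris pH 7.5, 80 mM KCl, 4 mM MgCl2), without ligand or with the indicated ligand. Median apparent KD per design.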

[1] = input ligand: theophylline 20 uM
[2] = input ligand: tryptophan 2.4 mM
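Note: bound reporter read as fluorescence of individual clusters on recovered sequencing chips by microscopy, with normalized cluster intensities fitted with a binding model.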

| Sequence | apparent KD of K4 kissing-loop reporter (input ligand: FMN 200 uM) [nM] | apparent KD of K4 kissing-loop reporter (input ligand: arginine 13.2 mM) [nM] | apparent KD of K4 kissing-loop reporter (input ligand: none) [nM] | apparent KD of K4 kissing-loop reporter [1] [nM] | apparent KD of K4 kissing-loop reporter [2] [nM] |
| --- | --- | --- | --- | --- | --- |
| CUCGAGUGAUGUUCGAUUAUGUAUACAGAUACCAGUGAAUUUUAACACCCUUGGCAGCUGGUAGAAUCUUUGUAAUUUUAACUAG [JR_ExcTheophyA_Sub002] | 162 | 253 | 180 | 230 | 134 |
| CUCGAGUGAUGUUCGAUUAUUUAUACAGAUACCAGUGAAUUUUAACACCCUUGGCAGCUGGUUGUAUCUUUGUUUUUUACACAAG [JR_ExcTheophyA_Sub006] | 117 | 177 | 118 | 172 | 107 |
| CUCGUGGGUUUGAGAGGGCUUGUGGGAAGAUAGGAUAUCUAGGGAGGGAGAAGGAUCUAUAGAAUAUAGUGAUGUUAUAUAUGGG [#05 K4 FMN A Same State] | 164 | 131 | 87.7 | 154 | 122 |
| CUCGUGGGUUUGAGAGGGCUUGUGGGAAGUGAGGAUAUUUAGGGAGAAAGAAGGCACUAUAGAAUAUAGUGAUGUUAUAUAAGGG [SSFMNA.N] | 314 | 95.7 | 200 | 273 | 212 |
| CUCGUGGGUUUGGGAGGGCUUGUGGGAAGAUAGGAUAUCUAGGGAGGGAGAAGGAUCUAUAGAAUAUAGUGAUGUUAUAUAUGGG [SSFMNA.aA] | 118 | 261 | 165 | 230 | 106 |
| CUGAUGCUGAUGCGGCGGCCGGUGGUCGUGCGAGGACCGGUACGGCCGCCACUCGCGCGAGUGAUGUUCGCGCGUCGUCGUCGUC [First Shot] | 120 | 91.4 | 114 | 76.9 | 117 |
| CUGAUGCUGAUGCGGUGGCCGGUGGUCGUGCGAGGACCGGUACGGCCGCCACUCGCAUGAGUGAUGUUCAUGUGUCGUCGUCGUC [#04 K4 Tryptophan A Exclusion] | 204 | 133 | 169 | 164 | 172 |
| CUGGGUUGACGAAAAGUCAACAAAAGAGAAGGAGCGCACGAAAGUGCAGGUAGGUCGCUCAAUCCAGUGAUGUUGGGUCAUCCAG [#SwitchBubble 14 #K4Late] | 568 | 580 | 800 | 1110 | 869 |
| CUGGGUUGACGAAAAGUCAACAAAAGAGAAGGAGCGCACGAAAGUGCAGGUAGGUCGCUCAAUCCAGUGAUGUUGGGUCGUCCAG [#OpenEnded 11 #K4Late] | 279 | 192 | 284 | 285 | 222 |
| CUGGUGCUGAUGCGGUGGCCGGUGGUCGUGCGAGGACCGGUACGGCCGCCACUCGCAUGAGUGAUGUUCAUGUGUCGUCGUCGUC [whbob_EX_Tryp_A_t1] | 212 | 134 | 181 | 176 | 217 |
| CUGGUUCAGUGAUGUUGGAAGGUUUAGGUGAAGGAUAUAUUGCAUAAUAGAAGGUCACGGCCAUGCAAUUAUUAACGUAGCCUGU [theeternabot_exclusion_KL_FMN_A_3] | 279 | 114 | 172 | 126 | 158 |
| CUGUCCUACGAAGGAUAUGCUGAUGGGAUCAAACAGUGAUGUUGUUAUGAACUUAGGCUUAUGUGCGCAGAAGGUCGUGGCGACG [theeternabot_sameState_KL_FMN_B_42] | 236 | 396 | 264 | 801 | 546 |
| CUGUUUUAGUCGGCCGCCACUGCAAGUGAUGUUUGGAGUAUUAUGCCGUUUCUGUCCAUUGAACCCAGGACCGGGACCGGAUCGU [theeternabot_exclusion_KL_Trp_B_8] | 212 | 167 | 206 | 186 | 189 |
| CUUAAGAUAUGAGUGAUGUUUAUGUCCGAAGGAGCGUGCGAAAGUACAGGUAGGUCGCGGAUGUGAGUGAUGUUUAUGUAAGCGA [KL-XArg-A14 #analogue] | 121 | 37.1 | 120 | 75 | 103 |
| CUUCGAUUAACAGAUACCAGUCACUUUGGAGCCACACACAAGUGAGUGAUGUUCACUUGUGACCCUUGGCAGCUGUUAGUCGAAG [Theo B Ex t1] | 92.8 | 75.4 | 83.4 | 87.6 | 88.1 |
| CUUCUUCUUCCAAUCUCGGCCAACACGGGACGAGGACCGGUACGGCCGCCACUCGUGCAGUGAUGUUGCACGAUGGUGACGGAGA [Engebiisso] | 98.5 | 81.1 | 84.6 | 74.7 | 113 |
| CUUGAUGGAAACAUCGAGUAGAUUACUGAUACCAGUAUCGAUAGAUACCCUUGGCAGCAGAAUCAGUGAUCACGAGUGAUGUUCG [Ex Theophylline A K4 8] | 525 | 441 | 529 | 451 | 484 |
| CUUGGUGGCUACAUCAGGAAUUGCGGCGGAAAGGAUAUUCAUUGGCGAAGAAGGUUCCAAGUGACGAGUGAUGUUCUUCGUAAGG [theeternabot_sameState_KL_FMN_A_13] | 422 | 434 | 802 | 579 | 779 |
| CUUGUACAAGUGAUGUUUGUUAUAUCCGAAGGAGCGUCGUAAUAGACAGGUAGGUCGCGGAGUAAGAUAGUUUUUUUAAUAUCAU [JR_Nu_SSArginiA_Sub029] | 435 | 338 | 556 | 462 | 288 |
| GAAAGAAAGUAUGAUACCAGACACCCGAGUGAUGUUCGGAGCAGUGUGAUGUUCUUUUAAGUCCCUUGGCAGCAUAAAAGAAAAG [whbob_SS_Theo_B_sa84] | 122 | 142 | 126 | 101 | 91.7 |
| GAACGGAGUGAUGUUCCGUUGACGAUCCUACGAGGACCGGUACGGCCGCCACUCGUAUUGCAGUGAUGUUGCAACCAGCCGUACU [Exclusion Tryptophan A GF 10] | 104 | 112 | 102 | 106 | 87.9 |
